Here are results for 52 molecules from patent US20220098269A1 (IMMATICS BIOTECHNOLOGIES, published 2022).

Where only a bound is given, the exact number is not on record here.

Holding throughout (assay): UV-ligand exchange, anti-b2m ELISA; peptide exchange yield grade
A general note: An ELISA detects its analyte on a solid surface through an enzyme-linked reagent.

The target in one experiment is T1, HLA-B*07:02 (human).
T1 construct: Peptide-receptive MHC class I monomer after UV cleavage of a UV-sensitive ligand
The text has this:
(§1) Candidate peptides for T cell based therapies according to the present invention were further tested for their MHC binding capacity (affinity). The individual peptide-MHC complexes were produced by UV-ligand exchange, where a UV-sensitive peptide is cleaved upon UV-irradiation and exchanged with the peptide of interest as analyzed. Only peptide candidates that can effectively bind and stabilize the peptide-receptive MHC molecules prevent dissociation of the MHC complexes. To determine the yield of the exchange reaction, an ELISA was performed based on the detection of the light chain (β2m) of stabilized MHC complexes. The assay was performed as generally described in Rodenko et al. (Rodenko et al., 2006).
(§2) 96 well MAXISorp plates (NUNC) were coated over night with 2 μg/ml streptavidin in PBS at room temperature, washed 4× and blocked for 1h at 37° C. in 2% BSA containing blocking buffer. Refolded HLA-A*02:01/MLA-001 monomers served as standards, covering the range of 15-500 ng/ml. Peptide-MHC monomers of the UV-exchange reaction were diluted 100-fold in blocking buffer. Samples were incubated for 1 h at 37° C., washed four times, incubated with 2 μg/ml HRP conjugated anti-β2m for 1h at 37° C., washed again and detected with TMB solution that is stopped with […]. Absorption was measured at 450 nm. Candidate peptides that show a high exchange yield (preferably higher than 50%, most preferred higher than 75%) are generally preferred for a generation and production of antibodies or fragments thereof, and/or T cell receptors or fragments thereof, as they show sufficient avidity to the MHC molecules and prevent dissociation of the MHC complexes.

The target in a further experiment is T2, HLA-A*03:01 (human).
T2 construct: Peptide-receptive MHC class I monomer after UV cleavage of a UV-sensitive ligand
Source text: as §1, §2

Another experiment deals with T3, HLA-A*24:02 (human).
T3 construct: Peptide-receptive MHC class I monomer after UV cleavage of a UV-sensitive ligand
Source text: as §1, §2

The target of another experiment is T4, HLA-B*08:01 (human).
T4 construct: Peptide-receptive MHC class I monomer after UV cleavage of a UV-sensitive ligand
Source text: as §1, §2

For the next experiment, the target named is T5, HLA-B*44:05 (human).
T5 construct: Peptide-receptive MHC class I monomer after UV cleavage of a UV-sensitive ligand
Source text: as §1, §2

The target in a further experiment is T6, HLA-A*02:01 (human).
T6 construct: Peptide-receptive MHC class I monomer after UV cleavage of a UV-sensitive ligand
Source text: as §1, §2

B1: APFKDVTEY (peptide)
peptide: APFKDVTEY
On to B1, for which the peptide exchange yield in the experiment with HLA-B*07:02 is 50 to 75%.

B2: NLYDWSASY (peptide)
peptide: NLYDWSASY
B2 gave a peptide exchange yield with HLA-A*03:01 of 20 to 50%.

B3: HPDLTSMTF (peptide)
peptide: HPDLTSMTF
For B3, the peptide exchange yield with HLA-B*07:02 is not below 75%.

B4: HLFYDVTVF (peptide)
peptide: HLFYDVTVF
Turning to B4, the peptide exchange yield in the experiment with HLA-A*24:02 was 20 to 50%.

B5: DILDRTGHQL (peptide)
peptide: DILDRTGHQL
For the molecule B5, in the experiment with HLA-B*08:01, the binding result is given as “binds”.

B6: IVRDLSCRK (peptide)
peptide: IVRDLSCRK
Molecule B6 came in with a peptide exchange yield with HLA-A*03:01 of 50 to 75%.

B7: TYLPTDASLSF (peptide)
peptide: TYLPTDASLSF
The molecule B7 displayed a peptide exchange yield with HLA-A*24:02 not below 75%.

B8: IYQFARLDY (peptide)
peptide: IYQFARLDY
In the experiment with HLA-A*24:02, B8 had a peptide exchange yield of 20 to 50%.

B9: AESLAVHDI (peptide)
peptide: AESLAVHDI
B9 registered a peptide exchange yield in the experiment with HLA-B*44:05 of 50 to 75%.

B10: HLYYDVTEK (peptide)
peptide: HLYYDVTEK
In the experiment with HLA-A*03:01, B10 displayed a peptide exchange yield of 50 to 75%.

B11: KPREEQYDSTY (peptide)
peptide: KPREEQYDSTY
Turning to B11, the peptide exchange yield with HLA-B*44:05 is not below 75%.

B12: AFDKTIVKL (peptide)
peptide: AFDKTIVKL
In the case of B12, in the experiment with HLA-A*24:02, the peptide exchange yield lay within 20 to 50%.

B13: QEVDISLHY (peptide)
peptide: QEVDISLHY
On to B13, for which the peptide exchange yield in the experiment with HLA-B*44:05 was not below 75%.

B14: RLPAADFTRY (peptide)
peptide: RLPAADFTRY
For the molecule B14, the peptide exchange yield with HLA-A*03:01 lay in the range of 20 to 50%.

B15: NPADISVAL (peptide)
peptide: NPADISVAL
Regarding B15, in the experiment with HLA-B*07:02, the peptide exchange yield is not below 75%.

B16: HPFGYDLTL (peptide)
peptide: HPFGYDLTL
With B16, the peptide exchange yield with HLA-B*07:02 was not below 75%.

B17: SPKIFDSSW (peptide)
peptide: SPKIFDSSW
B17 gave a peptide exchange yield with HLA-B*07:02 of 50 to 75%.

B18: KENQDHSYSL (peptide)
peptide: KENQDHSYSL
For B18, the peptide exchange yield in the experiment with HLA-B*44:05 was not below 75%.

B19: KEVDDTLLVNEL (peptide)
peptide: KEVDDTLLVNEL
Molecule B19 came in with a peptide exchange yield with HLA-B*44:05 not below 75%.

B20: RLWDFTMNAK (peptide)
peptide: RLWDFTMNAK
B20: the peptide exchange yield in the experiment with HLA-A*03:01 lay within 50 to 75%.

B21: RDATASLW (peptide)
peptide: RDATASLW
Take B21: the peptide exchange yield in the experiment with HLA-B*44:05 is not below 75%.

B22: KAYDQTHLY (peptide)
peptide: KAYDQTHLY
In the case of B22, in the experiment with HLA-A*03:01, the peptide exchange yield was not below 75%.

B23: EYQDFSTLF (peptide)
peptide: EYQDFSTLF
As to B23, in the experiment with HLA-A*24:02, the peptide exchange yield was not below 75%.

B24: DEAVRDITW (peptide)
peptide: DEAVRDITW
In the case of B24, the peptide exchange yield with HLA-B*44:05 was not below 75%.

B25: GEYRCQTDL (peptide)
peptide: GEYRCQTDL
For the molecule B25, the peptide exchange yield with HLA-B*44:05 is not below 75%.

B26: DVSDKITFM (peptide)
peptide: DVSDKITFM
Take B26: in the experiment with HLA-B*08:01, the binding result was “binds”.

B27: YHDQTISF (peptide)
peptide: YHDQTISF
For the molecule B27, the peptide exchange yield with HLA-A*24:02 was in the range of 10 to 20%.

B28: VYVDTTELAL (peptide)
peptide: VYVDTTELAL
Turning to B28, the peptide exchange yield with HLA-A*24:02 was not below 75%.

B29: GEPTSDITLL (peptide)
peptide: GEPTSDITLL
In the experiment with HLA-B*07:02, B29 registered a peptide exchange yield of 50 to 75%.

B30: KSYHDQTISF (peptide)
peptide: KSYHDQTISF
Turning to B30, in the experiment with HLA-A*24:02, the peptide exchange yield is not below 75%.

B31: AEFFDYTVRTL (peptide)
peptide: AEFFDYTVRTL
For the molecule B31, in the experiment with HLA-B*44:05, the peptide exchange yield was not below 75%.

B32: AQDTTYLWW (peptide)
peptide: AQDTTYLWW
Regarding B32, the peptide exchange yield in the experiment with HLA-B*44:05 was not below 75%.

B33: SLIDITHGF (peptide)
peptide: SLIDITHGF
For the molecule B33, the binding result with HLA-A*02:01 is reported as “binds”.

B34: DETAAYKIM (peptide)
peptide: DETAAYKIM
With B34, in the experiment with HLA-B*44:05, the peptide exchange yield fell in the range of 50 to 75%.

B35: DETHTLQF (peptide)
peptide: DETHTLQF
In turn, B35 gave a peptide exchange yield with HLA-B*44:05 not below 75%.

B36: TDFTKIASF (peptide)
peptide: TDFTKIASF
For the molecule B36, in the experiment with HLA-B*44:05, the peptide exchange yield is not below 75%.

B37: AERDLDVTI (peptide)
peptide: AERDLDVTI
With B37, the peptide exchange yield in the experiment with HLA-B*44:05 was not below 75%.

B38: LPFFTDKTLSF (peptide)
peptide: LPFFTDKTLSF
In the experiment with HLA-B*07:02, B38 returned a peptide exchange yield not below 75%.

B39: QAIDLSLNF (peptide)
peptide: QAIDLSLNF
Regarding B39, the peptide exchange yield with HLA-A*24:02 lay within 20 to 50%.

B40: VPRNQDESV (peptide)
peptide: VPRNQDESV
B40 came in with a peptide exchange yield with HLA-B*07:02 not below 75%.

B41: LENMYDLTF (peptide)
peptide: LENMYDLTF
Consider B41, for which the peptide exchange yield in the experiment with HLA-B*44:05 was not below 75%.

B42: RQDESYLNF (peptide)
peptide: RQDESYLNF
For B42, the peptide exchange yield in the experiment with HLA-A*24:02 is 20 to 50%.

B43: DETIWYVRF (peptide)
peptide: DETIWYVRF
As to B43, in the experiment with HLA-B*44:05, the peptide exchange yield was not below 75%.

B44: RYVNDYTNSF (peptide)
peptide: RYVNDYTNSF
B44 gave a peptide exchange yield in the experiment with HLA-A*24:02 not below 75%.

B45: VFDETKNLL (peptide)
peptide: VFDETKNLL
In turn, B45 yielded a peptide exchange yield with HLA-A*24:02 of 20 to 50%.

B46: IFVPTDRSL (peptide)
peptide: IFVPTDRSL
Take B46: in the experiment with HLA-A*24:02, the peptide exchange yield was 20 to 50%.

B47: VYLDASKVPGF (peptide)
peptide: VYLDASKVPGF
In turn, B47 gave a peptide exchange yield in the experiment with HLA-A*24:02 not below 75%.

B48: FPYYLKIDY (peptide)
peptide: FPYYLKIDY
With B48, in the experiment with HLA-B*07:02, the peptide exchange yield lay within 50 to 75%.

B49: IYPDGTLLI (peptide)
peptide: IYPDGTLLI
B49: in the experiment with HLA-A*24:02, the peptide exchange yield is not below 75%.

B50: DESKYTWSW (peptide)
peptide: DESKYTWSW
In the case of B50, the peptide exchange yield with HLA-B*44:05 is not below 75%.

B51: VYIDDSVEL (peptide)
peptide: VYIDDSVEL
As to B51, in the experiment with HLA-A*24:02, the peptide exchange yield is not below 75%.

B52: TEGDFTKEASTY (peptide)
peptide: TEGDFTKEASTY
B52 showed a peptide exchange yield with HLA-B*44:05 of 50 to 75%.
